Positions count from the first letter of the chain named. Names and notes keep the numbering of the source.
T1: PUF4 RNA-binding domain (Saccharomyces cerevisiae, UniProt P25339 537-888)
T1 sequence: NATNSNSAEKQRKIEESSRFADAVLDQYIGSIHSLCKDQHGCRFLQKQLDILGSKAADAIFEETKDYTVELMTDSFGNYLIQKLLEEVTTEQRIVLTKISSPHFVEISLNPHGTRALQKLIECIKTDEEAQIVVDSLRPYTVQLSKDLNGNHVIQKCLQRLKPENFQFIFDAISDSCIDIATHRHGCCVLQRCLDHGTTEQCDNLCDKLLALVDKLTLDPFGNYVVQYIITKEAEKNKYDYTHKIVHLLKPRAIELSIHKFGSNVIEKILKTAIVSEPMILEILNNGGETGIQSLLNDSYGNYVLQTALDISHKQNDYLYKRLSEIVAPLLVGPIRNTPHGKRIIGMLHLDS

B1: Ie_S2_P3E.2_K3.1_C3.2_H3.1_A3.1_[+5C]_F3.1_T3.2 (ssRNA)
RNA: UUUGAUUAAUAUGAUAUCGUUCUUUCUCUUGUAUCAUAUAUUCUUUCUCGAUAUCAUAUUAAUCUUU
B2: Ie_S2_P3E.2_K3.1_C3.2_H3.1_A3.1_F3.1_[+8T]_T3.2 (ssRNA)
RNA: B1 RNA with C35A, A36U, U37A, A38U
B3: Ie_S2_P3E.2_K3.1_C3.2_H3.1_A3.1_F3.1_[+8C]_T3.2 (ssRNA)
RNA: B1 RNA with C35A, A36U, U37A, A38C
B4: Ie_S2_P3E.2_K3.1_C3.2_H3.1_A3.1_F3.1_[+7C]_T3.2 (ssRNA)
RNA: B1 RNA with C35A, A36U, U37C
B5: Ie_S2_P3E.2_K3.1_C3.2_H3.1_A3.1_[+6C]_F3.1_T3.2 (ssRNA)
RNA: B1 RNA with C35A, A36C
B6: Ie_S2_P3E.2_K3.1_C3.2_H3.1_A3.1_[+5CC]_F3.1_T3.2 (ssRNA)
RNA: UUUGAUUAAUAUGAUAUCGUUCUUUCUCUUGUAUCCAUAUAUUCUUUCUCGAUAUCAUAUUAAUCUUU
B7: Ie_S2_P3E.2_K3.1_C3.2_H3.1_A3.1_F3.1_[+8TC]_T3.2 (ssRNA)
RNA: B6 RNA with C35A, C36U, A39C
B8: Ie_S2_P3E.2_K3.1_C3.2_H3.1_A3.1_F3.1_[+8TT]_T3.2 (ssRNA)
RNA: B6 RNA with C35A, C36U, A39U
B9: Ie_S2_P3E.2_K3.1_C3.2_H3.1_A3.1_F3.1_[+8CT]_T3.2 (ssRNA)
RNA: B6 RNA with C35A, C36U, U38C, A39U
B10: Ie_S2_P3E.2_K3.1_C3.2_H3.1_A3.1_F3.1_[+7CT]_T3.2 (ssRNA)
RNA: B6 RNA with C35A, C36U, A37C
B11: Ie_S2_P3E.2_K3.1_C3.2_H3.1_A3.1_F3.1_[+7CC]_T3.2 (ssRNA)
RNA: B6 RNA with C35A, C36U, A37C, U38C
B12: Ie_S2_P3E.2_K3.1_C3.2_H3.1_[+4CCTC]_A3.1_F3.1_T3.2 (ssRNA)
RNA: UUUGAUUAAUAUGAUAUCGUUCUUUCUCUUGUACCUCUAUAUAUUCUUUCUCGAUAUCAUAUUAAUCUUU
B13: Ie_S2_P3E.2_K3.1_C3.2_H3.1_A3.1_F3.1_[+8TCTC]_T3.2 (ssRNA)
RNA: B12 RNA with C34U, C35A, C37A, A39C, A41C
B14: Ie_S2_P3E.2_K3.1_C3.2_H3.1_[+4CCCT]_A3.1_F3.1_T3.2 (ssRNA)
RNA: B12 RNA with U36C, C37U
B15: Ie_S2_P3E.2_K3.1_C3.2_H3.1_A3.1_F3.1_[+8TTCC]_T3.2 (ssRNA)
RNA: B12 RNA with C34U, C35A, C37A, A39U, U40C, A41C
B16: Ie_S2_P3E.2_K3.1_C3.2_H3.1_A3.1_F3.1_[+8CCTC]_T3.2 (ssRNA)
RNA: B12 RNA with C34U, C35A, C37A, U38C, A39C, A41C
B17: Ic_S2_P3E.1_K3.1_C3.1_H3.1_A3.1_[T5C]_F3.1_[A8G]_T3.1 (ssRNA)
RNA: UUUGAUUAAUAUGAUAUCGUUCUUUCUUGUACAUGUUCUUUCUCGAUAUCAUAUUAAUCUUU
B18: Ic_S2_P3E.1_K3.1_C3.1_H3.1_A3.1_[T5C]_F3.1_[A8C]_T3.1 (ssRNA)
RNA: B17 RNA with G35C
B19: Ib_S2_P3E.1_K3.1_C3.1_H3.1_A3.1_[T5C]_F3.1_[A8T]_T3.1 (ssRNA)
RNA: B17 RNA with G35U
B20: Ib_S2_P3E.1_K3.1_C3.1_H3.1_A3.1_[A6C]_F3.1_[A8G]_T3.1 (ssRNA)
RNA: B17 RNA with C32U, A33C
B21: Ia_S2_P3E.1_K3.1_C3.1_H3.1_[G2T]_A3.1_F3.1_T3.1 (ssRNA)
RNA: B17 RNA with G29U, C32U, G35A
B22: Ic_S2_P3E.1_K3.1_C3.1_H3.1_A3.1_[A6G]_F3.1_[A8G]_T3.1 (ssRNA)
RNA: B17 RNA with C32U, A33G
B23: Ie_S2_P4E.1_K4.1_C4.1_H4.1_[+1CCT]_A4.1_F4.1_T4.1 (ssRNA)
RNA: UUUGAUUAAUAUGAUAUCGUUCUUUCUUCCUGUAUAUUAUUCUUUCUCGAUAUCAUAUUAAUCUUU
B24: Ie_S2_P4E.1_K4.1_C4.1_H4.1_[+1TTC]_A4.1_F4.1_T4.1 (ssRNA)
RNA: B23 RNA with C29U, C30U, U31C
B25: Ie_S2_P4E.1_K4.1_C4.1_H4.1_[+1CTT]_A4.1_F4.1_T4.1 (ssRNA)
RNA: B23 RNA with C30U
B26: Ie_S2_P4E.1_K4.1_C4.1_H4.1_[+1TCT]_A4.1_F4.1_T4.1 (ssRNA)
RNA: B23 RNA with C29U
B27: Ie_S2_P3E.2_K3.1_C3.2_H3.1_A3.1_F3.1_[+7CCC]_T3.2 (ssRNA)
RNA: UUUGAUUAAUAUGAUAUCGUUCUUUCUCUUGUAUAUCCCAUAUUCUUUCUCGAUAUCAUAUUAAUCUUU
B28: Ie_S2_P3E.2_K3.1_C3.2_H3.1_A3.1_F3.1_[+8CTC]_T3.2 (ssRNA)
RNA: B27 RNA with C37A, C39U, A40C
B29: Ie_S2_P3E.2_K3.1_C3.2_H3.1_A3.1_F3.1_[+8TCT]_T3.2 (ssRNA)
RNA: B27 RNA with C37A, C38U, A40U
B30: Ie_S2_P3E.2_K3.1_C3.2_H3.1_A3.1_F3.1_[+8TCC]_T3.2 (ssRNA)
RNA: B27 RNA with C37A, C38U, A40C
B31: Ie_S2_P3E.2_K3.1_C3.2_H3.1_A3.1_F3.1_[+7CTC]_T3.2 (ssRNA)
RNA: B27 RNA with C38U
B32: Ie_S2_P3E.2_K3.1_C3.2_H3.1_A3.1_F3.1_[+7TTC]_T3.2 (ssRNA)
RNA: B27 RNA with C37U, C38U
B33: Ie_S2_P3E.2_K3.1_C3.2_H3.1_A3.1_F3.1_[+7TCC]_T3.2 (ssRNA)
RNA: B27 RNA with C37U
B34: Ie_S2_P3E.2_K3.1_C3.2_H3.1_A3.1_F3.1_[+8CCC]_T3.2 (ssRNA)
RNA: B27 RNA with C37A, A40C
B35: Ie_S2_P3E.2_K3.1_C3.2_H3.1_A3.1_F3.1_[+8CCT]_T3.2 (ssRNA)
RNA: B27 RNA with C37A, A40U
B36: Ie_S2_P3E.2_K3.1_C3.2_H3.1_A3.1_F3.1_[+8TTC]_T3.2 (ssRNA)
RNA: B27 RNA with C37A, C38U, C39U, A40C
B37: Ie_S2_P4E.1_K4.1_C4.1_H4.1_[+1TC]_A4.1_F4.1_T4.1 (ssRNA)
RNA: UUUGAUUAAUAUGAUAUCGUUCUUUCUUUCGUAUAUUAUUCUUUCUCGAUAUCAUAUUAAUCUUU
B38: Ie_S2_P3E.2_K3.1_C3.2_H3.1_A3.1_F3.1_[+8CCTCT]_T3.2 (ssRNA)
RNA: UUUGAUUAAUAUGAUAUCGUUCUUUCUCUUGUAUAUACCUCUUAUUCUUUCUCGAUAUCAUAUUAAUCUUU
B39: Ie_S2_P4E.1_K4.1_C4.1_H4.1_[+1CCTC]_A4.1_F4.1_T4.1 (ssRNA)
RNA: UUUGAUUAAUAUGAUAUCGUUCUUUCUUCCUCGUAUAUUAUUCUUUCUCGAUAUCAUAUUAAUCUUU
B40: Ie_S2_P4E.1_K4.1_C4.1_H4.1_[+1CCCT]_A4.1_F4.1_T4.1 (ssRNA)
RNA: B39 RNA with U31C, C32U
B41: Ie_S2_P4E.1_K4.1_C4.1_H4.1_[+1T]_A4.1_F4.1_T4.1 (ssRNA)
RNA: UUUGAUUAAUAUGAUAUCGUUCUUUCUUUGUAUAUUAUUCUUUCUCGAUAUCAUAUUAAUCUUU
B42: Ie_S2_P4E.1_K4.1_C4.1_H4.1_[+1TCTCT]_A4.1_F4.1_T4.1 (ssRNA)
RNA: UUUGAUUAAUAUGAUAUCGUUCUUUCUUUCUCUGUAUAUUAUUCUUUCUCGAUAUCAUAUUAAUCUUU
B43: Ie_S2_P4E.1_K4.1_C4.1_H4.1_[+1TTCCT]_A4.1_F4.1_T4.1 (ssRNA)
RNA: B42 RNA with C30U, U31C
B44: Ie_S2_P4E.1_K4.1_C4.1_H4.1_[+1CCCTT]_A4.1_F4.1_T4.1 (ssRNA)
RNA: B42 RNA with U29C, U31C, C32U
B45: Ie_S2_P4E.1_K4.1_C4.1_H4.1_[+1CCTCT]_A4.1_F4.1_T4.1 (ssRNA)
RNA: B42 RNA with U29C
B46: Ie_S2_P3E.2_K3.1_C3.2_H3.1_[+4CCCTT]_A3.1_F3.1_T3.2 (ssRNA)
RNA: UUUGAUUAAUAUGAUAUCGUUCUUUCUCUUGUACCCUUUAUAUAUUCUUUCUCGAUAUCAUAUUAAUCUUU
B47: Ie_S2_P3E.2_K3.1_C3.2_H3.1_A3.1_F3.1_[+8TTCCT]_T3.2 (ssRNA)
RNA: B38 RNA with C38U, C39U, U40C
B48: Ie_S2_P3E.2_K3.1_C3.2_H3.1_A3.1_F3.1_[+8CCCTT]_T3.2 (ssRNA)
RNA: B38 RNA with U40C, C41U
B49: Ie_S2_P3E.2_K3.1_C3.2_H3.1_A3.1_F3.1_[+8CTCTC]_T3.2 (ssRNA)
RNA: B38 RNA with C39U, U40C, C41U, U42C
B50: Ie_S2_P3E.2_K3.1_C3.2_H3.1_A3.1_F3.1_[+8TCTCT]_T3.2 (ssRNA)
RNA: B38 RNA with C38U

What follows are binders tested against T1, PUF4 RNA-binding domain (assay: Mg; RNA-MaP; 20 mM Na-HEPES pH 7.4, 30 mM KOAc, 0.75 mM MgCl2, 0.1% Tween-20, 5% glycerol, 0.1 mg/mL BSA, 2 mM DTT; 25 C; 0.0125-409.6 nM protein). Details: tags: N-His6-TEV cleaved; C-SNAP kept, Cy3B-labelled; label: tethered on chip by stalled RNA polymerase.

Binder	Kd [nM]
B1	0.639
B2	1.66
B3	2.93
B4	5.11
B5	0.437
B6	7.04
B7	2.05
B8	1.56
B9	3.03
B10	3.3
B11	17.5
B12	4.82
B13	3.5
B14	2.61
B15	2.56
B16	4.3
B17	10.4
B18	11.1
B19	1.62
B20	14.7
B21	366
B22	44.9
B23	0.245
B24	7.09
B25	0.196

Binder	Kd [nM]
B26	0.234
B27	19.5
B28	5.33
B29	2.19
B30	2.84
B31	14
B32	9.85
B33	6.48
B34	7.81
B35	2.8
B36	2.96
B37	8.48
B38	4.17
B39	5.67
B40	0.188
B41	0.232
B42	0.249
B43	0.215
B44	0.12
B45	0.166
B46	6.09
B47	2.02
B48	3.77
B49	5.38
B50	3.44
